Experiment [1] concerns the target extracellular domain protein of human MOG to which FLAG-Fc is added at the C-terminus (hMOG-FLAG-Fc) (human). The experiment can be described thus: phage ELISA.
Experiment [2] deals with T1, human MOG (hMOG) expressed on HEK293, Expi293F or L929 cells (human, UniProt Q16653 30-247).
T1 construct: also called hMOG/HEK293; hMOG/HEK293F
T1 chain: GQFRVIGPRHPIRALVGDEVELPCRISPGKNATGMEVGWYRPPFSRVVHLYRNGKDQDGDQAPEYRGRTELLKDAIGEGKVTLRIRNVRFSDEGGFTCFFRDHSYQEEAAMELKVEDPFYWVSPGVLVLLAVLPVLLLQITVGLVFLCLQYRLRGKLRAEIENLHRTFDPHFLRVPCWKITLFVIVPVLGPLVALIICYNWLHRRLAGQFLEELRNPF
The experiment can be described thus: phage clone on hMOG/Expi293F cells.

For experiment [3], the target named is T1, human MOG (hMOG) expressed on HEK293, …. The experiment can be described thus: flow cytometry on L929 cells expressing human MOG (hMOG/L929); antibody titrated, RPE-labelled goat anti-human antibody. The text has this:
pEF6_hMOG obtained in Example 5 was introduced to mouse connective tissue-derived fibroblast L929 cells [American Type Culture Collection (ATCC) No.: CCL-1] using HilyMax (manufactured by Dojindo Laboratories). The gene-transfected cells were selected using an antibiotic substance, Blasticidin (manufactured by Invitrogen) and then cloned by the limiting dilution method. Using the L929 cells expressing hMOG on the cell surface (abbreviated as hMOG/L929 below), the reactivities of the bispecific antibodies were analyzed by the method described below.
The hMOG/L929 cells were suspended in a Staining Buffer (SB) of PBS containing 0.1% NaN₃ and 1% FBS and dispensed to a round-bottom 96-well plate (manufactured by Becton Dickinson). […] After suspending the pellets, the plate was left to stand at ice temperature for 30 minutes. The supernatants were removed after further centrifugation (2000 rpm, 4° C., two minutes), and the pellets were washed with SB. Then, 1 μg/mL RPE fluorescently labeled goat anti-human antibody (manufactured by Southern Biotech) was added, and the plate was incubated at ice temperature for 30 minutes. After washing with SB, the cells were suspended in SB, and the fluorescence intensities of the cells were measured with a flow cytometer FACS CANTO II (manufactured by Becton Dickinson). The results are shown in FIGS. 12A to 12C and FIGS. 13A and 13B.

B1: MOG470 (scFv phage clone similar to MOG329 antibody) (scFv)
scFv: QVQLVESGGGLVQPGGSLRLSCAASGFTFSSYAMNWVRQAPGKGLEWVSAISGSGGSTYYADSVKGRFTISRDNSKNTLYLQVNSLRAEDTAVYYCARDYGGISPFDYWGQGTLVTVSSGGGGSGGRASGGGGSEIVMTQSPATLSLSPGERATLSCRASQSVSSYLAWYQQKPGQAPRLLIYDASNRATGIPARFSGSGSGTDFTLTISRLEPEDFAVYYCQQYGSSPYTFGQGTRLEIK
Turning to B1, the binding result in experiment [1] and in experiment [2] was “binds” in each case.

B2: MOG456 antibody (anti-MOG scFv displayed on phage, pCANTAB_MOG456) (scFv)
scFv: EVQLVESGGGLVKPGGSLRLSCAASGFTFSSYSMHWVRQAPGKGLEWVSSIGSRSRYIYYADSVKGRFTISRDNAKNSLYLQMNSLRAEDTAVYYCAKGYYDILTGSLFDYWGQGTLVTVSSGGGGSGGRASGGGGSDIVMTQSPSSLSASVGDRVTITCRASQGISSALAWYQQKPGKAPKLLIYDASSLESGVPSRFSGSGSGTDFTLTISSLQPEDFATYYCQQFNSYPWTFGQGTKVEIK
Turning to B2, the binding result in experiment [1] and in experiment [2] was “binds” throughout.

B3: MOG357 (scFv phage clone similar to MOG303 antibody) (scFv)
scFv: EVQLVETGGGLVQPGGSLRLSCAASGFTFSSYAMSWVRQAPGKGLEWVSDINHSGGSTYYADSVKGRFTISRDNSKHTLYLQMNSLRAEDTAVYYCAKDYYDILTGSFFDYWGQGTLVTVSSGGGGSGGRASGGGGSDIVMTQSPSSLSASVGDRVTITCRASQGISSALAWYQQKPGKAPKLLIYDASSLESGVPSRFSGSGSGTDFTLTISSLQPEDFATYYCQQFNSYPWTFGQGTKVEIK
Take B3: the binding result in experiment [1] and in experiment [2] was “binds” in each case.

B4: MOG308 (scFv phage clone similar to MOG310 antibody) (scFv)
scFv: EVQLVQSGAEVRKSGSSVKVSCKASGGTFSRYAISWVRQAPGQGLEWMGGIIPMFSTTNYAQKFQGRVTITADESTSTAYMELSSLRSEDTAVYYCARDWAVAGMGFAYWGQGTLVTVSSGGGGSGGRASGGGGSEIVMTQSPATLSLSPGERATLSCRASQSVSSYLAWYQQKPGQAPRLLIYDASNRATGIPARFSGSGSGTDFTLTISSLEPEDFAVYYCQQRSNWPPTFGQGTKVDIK
On to B4, for which the binding result in experiment [1] and in experiment [2] was “binds” in each case.

B5: MOG329 antibody (anti-MOG scFv displayed on phage, pCANTAB_MOG329) (scFv)
scFv: QVQLVESGGGLVQPGGSLRLSCAASGFAFRNYAMNWVRQAPGKGLEWVSAISGSGGSTYYADSVKGRFTISRDNSKNTLYLQMNSLRAEDTAVYYCARDYGGISPFDYWGQGTLVTVSSGGGGSGGRASGGGGSDIQLTQSPSSLSASVGDRVTITCRASQGISSALAWYQQKPGKAPKLLIYDASSLESGVPSRFSGSGSGTDFTLTISSLQPEDFATYYCQQFNSYPHTFGQGTKVDIK
With B5, the binding result in experiment [1] and in experiment [2] was “binds” in each case.

B6: MOG316 (scFv phage clone similar to MOG310 antibody) (scFv)
scFv: EVQLVQSGAEVKKPGSSVKVSCKASGGTFSRYAISWVRQAPGQGLEWMGGIIPMFNTANYAQKFQGRVTITADESTSTAYMELSSLRSEDTAVYYCARDWAVAGMGFNYWGQGTLVTVSSGGGGSGGRASGGGGSDIQMTQSPSSLSASVGDRVTITCRASQGINSALAWYQQKPGKAPKLLIYAASSLQSGVPSRFSGSGSGTDFTLTISSLQPEDFATYYCQQYNSYPITFGQGTRLEIK
With B6, the binding result in experiment [1] and in experiment [2] was “binds” each time.

B7: MOG314 (scFv phage clone similar to MOG303 antibody) (scFv)
scFv: QVQLVESGGGLVQPGGSLRLSCAASGFTFSSYAMSWVRQAPGKGLEWVSAISGRGSSTYYADSVKGRFTISRDNSKNTLYLQMNSLRAEDTAVYYCAKGYYDILTGSFFDYWGQGTLVTVSSGGGGSGGRASGGGGSDIQLTQSPSSLSASVGDRVTITCRASQGISSALAWYQQKPGKAPKLLIYDASSLESGVPSRFSGSGSGTDFTLTISSLQPEDFATYYCQQFNSYPYTFGQGTKLEIK
For B7, the binding result in experiment [1] and in experiment [2] was “binds” each time.

B8: MOG315 (scFv phage clone similar to MOG303 antibody) (scFv)
scFv: EVQLVESGGGLVQPGGSLRLSCAASGFTFSTYAMSWVRQAPGKGLEWVSAISGSGVSTYYADSVKGRFTLSRDNSKNTLYLQMNSLRAEDTAVYYCAKAYYDILTGNFLDYWGQGTLVTVSSGGGGSGGRASGGGGSAIQLTQSPSSLSASVGDRVTITCRASQGISSALAWYQQKPGKAPKLLIYDASSLESGVPSRFSGSGSGTDFTLTISSLQPEDFATYYCQQFNSYPLTFGGGTKVEIK
In the case of B8, the binding result in experiment [1] and in experiment [2] was “binds” in each case.

B9: MOG476 (scFv phage clone similar to MOG303 antibody) (scFv)
scFv: EVQLVESGGGLVQPGGSLRLSCAASGFTFSSYAMNWVRQAPGKGLEWVSAISYSGRSTYYADSVKGRFTISRDNSKNTLYLQMNSLRAEDTAVYYCAKGLYDILTGGGFDYWGQGTLVTVSSGGGGSGGRASGGGGSDIQMTQSPSSLSASVGDRVTITCRASQGISSALAWYQQKPGKAPKLLIYDASSLESGVPSRFSGSGSGTDFTLTISSLQPEDFATYYCQQFNSYPSTFGQGTRLEIK
With B9, the binding result in experiment [1] and in experiment [2] was “binds” each time.

B10: MOG426 (scFv phage clone similar to MOG301 antibody) (scFv)
scFv: QVQLVQSGAEVKKPGASVKVSCKASGYSFNSYGINWVRQAPGQGLEWMGWISAYTGKTSYAQKVQGRVTMTTDRSTSTAYMELRSLRSDDTAMYYCAREYDILTGYSDAFDTWGQGTMVTVSSGGGGSGGRASGGGGSEIVLTQSPATLSLSPGERATLSCRASQSVSSYLAWYQQKPGQAPRLLIYDASNRATGIPARFSGSGSGTDFTLTISSLEPEDFAVYYCQQRGNWPLTFGGGTKLEIK
B10: the binding result in experiment [1] and in experiment [2] was “binds” each time.

B11: MOG352 (scFv phage clone similar to MOG310 antibody) (scFv)
scFv: EVQLVQSGAEVKKPGSSVKVSCKASGGTFSRYAINWVRQAPGQGLEWMGGIIPMFSTVNYAQKFQGRVTITADESTSTAYMELSSLRSEDTAVYYCARDWAVAGMGFDYWGQGTLVTVSSGGGGSGGRASGGGGSAIQMTQSPSSVSASVGDRVTITCRASQGISSWLAWYQHKPGKAPKSLIYAASSLQSGVPSRFSGSGSGTDFTLTISSLQPEDFATYYCQQYNSYPLTFGGGTKVDIK
Take B11: the binding result in experiment [1] and in experiment [2] was “binds” in each case.

B12: AVM IgG4PE(R409K)_MOG01dscFv2 antibody (bispecific antibody)
heavy: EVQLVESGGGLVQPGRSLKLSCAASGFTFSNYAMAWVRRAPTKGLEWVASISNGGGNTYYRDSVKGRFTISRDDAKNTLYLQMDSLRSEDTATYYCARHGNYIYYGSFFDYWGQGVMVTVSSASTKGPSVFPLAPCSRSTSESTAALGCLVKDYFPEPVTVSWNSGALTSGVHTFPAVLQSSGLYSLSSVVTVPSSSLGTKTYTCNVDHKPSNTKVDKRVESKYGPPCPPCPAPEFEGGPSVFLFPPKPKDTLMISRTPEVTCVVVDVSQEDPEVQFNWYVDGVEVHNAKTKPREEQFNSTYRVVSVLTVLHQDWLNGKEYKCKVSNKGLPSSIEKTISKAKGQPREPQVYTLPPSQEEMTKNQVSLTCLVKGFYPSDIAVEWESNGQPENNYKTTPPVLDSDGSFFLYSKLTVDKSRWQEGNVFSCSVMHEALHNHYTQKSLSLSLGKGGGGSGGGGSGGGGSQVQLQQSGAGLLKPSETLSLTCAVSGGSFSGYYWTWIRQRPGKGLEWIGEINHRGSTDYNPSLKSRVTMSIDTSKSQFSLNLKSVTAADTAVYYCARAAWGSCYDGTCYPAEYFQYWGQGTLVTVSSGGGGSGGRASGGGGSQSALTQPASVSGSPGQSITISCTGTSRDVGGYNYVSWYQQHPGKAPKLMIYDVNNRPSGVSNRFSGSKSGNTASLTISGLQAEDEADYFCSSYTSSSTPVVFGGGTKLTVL
light: QFVLSQPNSVSTNLGSTVKLSCKRSTGNIGSNYVSWYQQHEGRSPTTMIYRDDKRPDGVPDRFSGSIDRSSDSALLTINNVQTEDEADYFCQSYSSGINIFGGGTKLTVLGQPKAAPSVTLFPPSSEELQANKATLVCLISDFYPGAVTVAWKADSSPVKAGVETTTPSKQSNNKYAASSYLSLTPEQWKSHRSYSCQVTHEGSTVEKTVAPTECS
notes: also called pCI-AVM-hLG4PE(R409K)_MOG01scFv2
Take B12: the binding result in experiment [3] was “binds”.

B13: AVM IgG4PE(R409K)_MOG01dscFv9 antibody (bispecific antibody)
heavy: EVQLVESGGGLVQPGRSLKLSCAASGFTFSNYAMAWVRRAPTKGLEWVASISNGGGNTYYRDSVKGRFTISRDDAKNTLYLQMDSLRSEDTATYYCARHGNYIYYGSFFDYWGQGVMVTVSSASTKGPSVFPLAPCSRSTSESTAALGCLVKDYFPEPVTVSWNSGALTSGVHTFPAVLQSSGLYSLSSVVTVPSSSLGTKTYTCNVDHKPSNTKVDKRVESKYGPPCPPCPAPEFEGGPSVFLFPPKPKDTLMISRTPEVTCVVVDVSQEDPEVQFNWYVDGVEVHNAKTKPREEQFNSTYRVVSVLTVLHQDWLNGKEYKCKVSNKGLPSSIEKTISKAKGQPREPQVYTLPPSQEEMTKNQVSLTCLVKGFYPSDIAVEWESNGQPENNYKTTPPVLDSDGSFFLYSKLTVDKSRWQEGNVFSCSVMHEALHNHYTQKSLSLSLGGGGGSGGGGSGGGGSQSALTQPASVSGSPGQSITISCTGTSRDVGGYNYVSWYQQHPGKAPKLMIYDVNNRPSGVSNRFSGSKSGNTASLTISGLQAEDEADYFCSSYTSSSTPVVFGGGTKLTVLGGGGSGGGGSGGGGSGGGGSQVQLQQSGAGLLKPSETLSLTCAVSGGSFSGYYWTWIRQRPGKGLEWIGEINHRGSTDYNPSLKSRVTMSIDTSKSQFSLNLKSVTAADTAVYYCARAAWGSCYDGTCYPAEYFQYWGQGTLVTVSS
light: QFVLSQPNSVSTNLGSTVKLSCKRSTGNIGSNYVSWYQQHEGRSPTTMIYRDDKRPDGVPDRFSGSIDRSSDSALLTINNVQTEDEADYFCQSYSSGINIFGGGTKLTVLGQPKAAPSVTLFPPSSEELQANKATLVCLISDFYPGAVTVAWKADSSPVKAGVETTTPSKQSNNKYAASSYLSLTPEQWKSHRSYSCQVTHEGSTVEKTVAPTECS
notes: also called pCI-AVM-hLG4PE(R409K)_MOG01scFv9
As to B13, in experiment [3], the binding result was “binds”.

B14: AVM IgG4PE(R409K)_MOG01dscFv4 antibody (bispecific antibody)
heavy: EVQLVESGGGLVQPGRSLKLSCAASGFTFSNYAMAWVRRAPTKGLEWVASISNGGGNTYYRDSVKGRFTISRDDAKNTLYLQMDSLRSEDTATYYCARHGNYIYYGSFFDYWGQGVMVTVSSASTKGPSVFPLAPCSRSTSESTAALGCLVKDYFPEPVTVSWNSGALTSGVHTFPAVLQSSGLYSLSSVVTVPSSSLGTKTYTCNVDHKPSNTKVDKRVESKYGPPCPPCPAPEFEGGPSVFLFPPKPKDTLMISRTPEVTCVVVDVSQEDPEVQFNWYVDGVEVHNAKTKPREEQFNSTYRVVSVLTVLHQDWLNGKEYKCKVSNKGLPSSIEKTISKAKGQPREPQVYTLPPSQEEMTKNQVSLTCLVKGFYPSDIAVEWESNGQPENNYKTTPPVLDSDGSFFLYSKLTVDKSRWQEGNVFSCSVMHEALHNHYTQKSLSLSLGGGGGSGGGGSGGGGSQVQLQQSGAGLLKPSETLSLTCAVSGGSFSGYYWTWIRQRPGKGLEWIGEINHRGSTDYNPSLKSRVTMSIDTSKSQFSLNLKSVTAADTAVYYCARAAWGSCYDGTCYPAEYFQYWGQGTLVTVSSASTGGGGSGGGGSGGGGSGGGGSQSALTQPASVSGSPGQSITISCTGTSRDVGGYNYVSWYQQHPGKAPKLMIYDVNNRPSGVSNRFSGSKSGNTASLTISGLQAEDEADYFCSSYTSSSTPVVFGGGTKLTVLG
light: QFVLSQPNSVSTNLGSTVKLSCKRSTGNIGSNYVSWYQQHEGRSPTTMIYRDDKRPDGVPDRFSGSIDRSSDSALLTINNVQTEDEADYFCQSYSSGINIFGGGTKLTVLGQPKAAPSVTLFPPSSEELQANKATLVCLISDFYPGAVTVAWKADSSPVKAGVETTTPSKQSNNKYAASSYLSLTPEQWKSHRSYSCQVTHEGSTVEKTVAPTECS
notes: also called pCI-AVM-hLG4PE(R409K)_MOG01scFv4
For the molecule B14, the binding result in experiment [3] was “binds”.

B15: AVM IgG4PE(R409K)_MOG01dscFv8 antibody (bispecific antibody)
heavy: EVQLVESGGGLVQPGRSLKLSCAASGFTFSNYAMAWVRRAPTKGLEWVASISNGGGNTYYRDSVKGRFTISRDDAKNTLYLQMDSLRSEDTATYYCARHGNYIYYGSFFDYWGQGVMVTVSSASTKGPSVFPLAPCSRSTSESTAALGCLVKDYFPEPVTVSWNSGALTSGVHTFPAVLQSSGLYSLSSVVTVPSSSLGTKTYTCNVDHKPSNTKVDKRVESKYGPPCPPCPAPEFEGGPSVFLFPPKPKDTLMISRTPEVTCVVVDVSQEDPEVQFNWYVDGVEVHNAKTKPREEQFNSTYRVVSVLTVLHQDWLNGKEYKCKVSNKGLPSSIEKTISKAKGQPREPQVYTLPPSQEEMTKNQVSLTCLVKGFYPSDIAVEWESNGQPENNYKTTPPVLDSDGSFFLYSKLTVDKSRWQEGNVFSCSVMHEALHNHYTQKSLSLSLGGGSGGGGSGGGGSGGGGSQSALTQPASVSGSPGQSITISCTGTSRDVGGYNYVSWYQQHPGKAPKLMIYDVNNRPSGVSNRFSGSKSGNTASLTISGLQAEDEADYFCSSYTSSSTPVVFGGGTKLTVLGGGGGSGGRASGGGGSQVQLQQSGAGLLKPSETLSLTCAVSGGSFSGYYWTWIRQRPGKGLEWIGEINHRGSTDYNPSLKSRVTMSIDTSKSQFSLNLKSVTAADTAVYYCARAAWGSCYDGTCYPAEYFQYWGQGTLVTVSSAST
light: QFVLSQPNSVSTNLGSTVKLSCKRSTGNIGSNYVSWYQQHEGRSPTTMIYRDDKRPDGVPDRFSGSIDRSSDSALLTINNVQTEDEADYFCQSYSSGINIFGGGTKLTVLGQPKAAPSVTLFPPSSEELQANKATLVCLISDFYPGAVTVAWKADSSPVKAGVETTTPSKQSNNKYAASSYLSLTPEQWKSHRSYSCQVTHEGSTVEKTVAPTECS
notes: also called pCI-AVM-hLG4PE(R409K)_MOG01scFv8
B15: the binding result in experiment [3] is listed as “binds”.

B16: MOG338 (scFv phage clone similar to MOG310 antibody) (scFv)
scFv: QVQLVQSGAEVKKPGSSVKVSCKASGGTFSRYAISWVRQAPGQGLEWMGGIIPMFNTANYAQKFQGRVTITADESTSTAYMELSSLRSEDTAVYYCARDWAVAGMGFDPWGQGTLVTVSSGGGGSGGRASGGGGSEIVLTQSPATLSLSPGERATLSCRASQSVSSYLAWYQQKPGQAPRLLIYDASNRATGIPARFSGSGSGTDFTLTISSLEPEDFAVYYCQQRNNWPLTFGGGTKLEIK
On to B16, for which the binding result in experiment [1] and in experiment [2] was “binds” in each case.

The values above are taken from patent US20260092110A1 (Kyowa Kirin, published 2026).
